From PMC12852372, “Phosphorylation-driven conformational switching of the ArnA–ArnB complex involved in archaeal motility regulation” (Frontiers in Microbiology, 2025)

Biological target: T1, phosphorylated ArnB (ArnB~P), phosphorylated by the kinase ArnC (Sulfolobus acidocaldarius, UniProt Q4J9H3 2-380, phosphothreonine at T353, T363 and T375 (almost complete within the first 5 min with ArnC); phosphothreonine at T322 and T335 only after 15 min)
T1 construct: ArnB of Sulfolobus acidocaldarius, Saci_1211; also called tagged ArnB; source: E. coli BL21(DE3) Rosetta; phosphorylated by ArnC in the mixed lysate (ATP, MnCl2, 55 °C, 5-60 min); in lysate for the pull-downs; purified (Ni-NTA, SEC) for HDX-MS; not shown: His6, C-terminal, kept
T1 sequence: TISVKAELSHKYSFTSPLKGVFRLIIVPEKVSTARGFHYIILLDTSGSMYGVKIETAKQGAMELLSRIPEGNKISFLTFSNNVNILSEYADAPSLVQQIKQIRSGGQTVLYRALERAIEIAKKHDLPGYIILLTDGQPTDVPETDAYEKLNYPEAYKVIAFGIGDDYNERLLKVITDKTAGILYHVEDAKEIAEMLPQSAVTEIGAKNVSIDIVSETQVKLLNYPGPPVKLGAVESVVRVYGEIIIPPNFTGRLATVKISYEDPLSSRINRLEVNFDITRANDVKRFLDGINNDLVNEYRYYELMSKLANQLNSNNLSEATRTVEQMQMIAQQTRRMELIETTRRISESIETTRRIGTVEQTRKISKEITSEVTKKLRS
Assay: HDX-MS; ArnA, ArnB, ArnB~P and ArnA/ArnB~P (isolated by Ni-NTA via the His6 tag of ArnB, then SEC); 50 μM stocks in 20 mM Tris-Cl pH 8.0, 150 mM NaCl; 25 °C; 10-10,000 s
Conditions: both partners purified

binding result: binds
B1: ArnA (Saci_1210) (natural protein, Sulfolobus acidocaldarius)
chain: TWKCNLCGYENDDDALFCIKCGAQKSSEAQQLPQQQPSEPQAQGVVTQQQVVTNPPVQAQVATPQQPAQQPVLPQPEPAQPQPVSSTPAPQQASQPTNRYYIYFIQTPNENLVNKKVLLNFDLFPSVSMGRSPENIVIVPDSEVSRKHAVIYLDNSELYIEDLNSTNGTYVYDGKQFTPIKGKQKIEPNSIIKLGNQTIVRILKE
notes: ArnA of Sulfolobus acidocaldarius, Saci_1210; N-terminal zinc-finger (ZnF) domain, disordered linker (S28-N99) and C-terminal FHA domain; In the crystal (PDB 8S05) only the ZnF domain (P16-K42) is defined by density; also called StrepII-tagged ArnA; source: E. coli BL21(DE3) Rosetta; purified (heat treatment, Ni-NTA, SEC) for crystals, SAXS and HDX-MS; co-expressed with His6-ArnB, in lysate, for …
